# Experimental data: US20230212222A1 (ANYGEN CO., LTD., priority 2020, published 2023)
# Numbered stars: 1 amine (or outer) side, 2 acyl side, 3 side chain; on linkers, the order of the positions; unused ones are H or OH. Square brackets hold non-standard residues; d marks the D form. Ends that are not written are not given here. * marks the point of attachment. DAMP‑2 = His whose imidazole is a 1,3-bis(2-cyclohexylethyl)-2,3-dihydro-1H-imidazol-4-yl group, O=C([C@H](CC1=CN(CCC2CCCCC2)CN1CCC1CCCCC1)N[*:1])[*:2]; DAMP‑3 = His whose imidazole is a 1,3-diphenethyl-2,3-dihydro-1H-imidazol-4-yl group, O=C([C@H](CC1=CN(CCc2ccccc2)CN1CCc1ccccc1)N[*:1])[*:2]; 1,2‑diphenyl = His whose imidazole is a 1,2-diphenyl-1H-imidazol-4-yl group, O=C([C@H](Cc1cn(-c2ccccc2)c(-c2ccccc2)n1)N[*:1])[*:2]; tbm = (2'-(1H-tetrazol-5-yl)-[1,1'-biphenyl]-4-yl)methyl on the histidine imidazole nitrogen, c1ccc(-c2nn[nH]n2)c(-c2ccc(C*)cc2)c1; 2‑(4-tert-butyl)phenyl = His carrying a 2-(4-tert-butylphenyl) group on the imidazole (imidazole C2), CC(C)(C)c1ccc(*)cc1; DAMP‑5 = His whose imidazole is a 3-(2-cyclohexylethyl)-2,3-dihydro-1H-imidazol-4-yl group; thiophene = His carrying a thiophen-2-yl group on the imidazole (imidazole C2), c1csc(*)c1; 1‑phenyl = His whose imidazole is a 1-phenyl-1H-imidazol-4-yl group, c1ccc(*)cc1; 2‑phenyl = His whose imidazole is a 2-phenyl-1H-imidazol-4-yl group; 4‑methoxylbenzhydryl = COc1ccc(C(c2ccccc2)*)cc1; Biotin = O=C1N[C@H]2[C@H](CS[C@H]2CCCCC(=O)*)N1; dPhe(4-CF3) = N[C@H](Cc1ccc(C(F)(F)F)cc1)C(=O)O; Fm = 9H-fluoren-9-yl, c1ccc2c(c1)-c1ccccc1C2*; 1‑(4-tert-butyl)phenyl = CC(C)(C)c1ccc(*)cc1; dPhe(4-Cl) = N[C@H](Cc1ccc(Cl)cc1)C(=O)O; dPhe(4-Me) = Cc1ccc(C[C@@H](N)C(=O)O)cc1; Trt = c1ccc(C(c2ccccc2)(c2ccccc2)*)cc1; CH2(1-naphthyl) = c1ccc2c(C*)cccc2c1; Benzhydryl = c1ccc(C(c2ccccc2)*)cc1; 2‑cyclohexylethyl = C1CCC(CC*)CC1; Tos = Cc1ccc(S(=O)(=O)*)cc1; Octanoyl = CCCCCCCC(=O)*
# B1: HKFY-77 (peptide)
# peptide: H(tbm)K(Octanoyl)FY
# modifications: not fully specified (residue 3); printed as His(tbm)-Lys(caprylic)-d-Phe(4-CF3)-Tyr
# Molecular target: T1, GPR39 (G protein-coupled receptor 39) (Homo sapiens (Human), UniProt O43194 1-453)
# T1 sequence: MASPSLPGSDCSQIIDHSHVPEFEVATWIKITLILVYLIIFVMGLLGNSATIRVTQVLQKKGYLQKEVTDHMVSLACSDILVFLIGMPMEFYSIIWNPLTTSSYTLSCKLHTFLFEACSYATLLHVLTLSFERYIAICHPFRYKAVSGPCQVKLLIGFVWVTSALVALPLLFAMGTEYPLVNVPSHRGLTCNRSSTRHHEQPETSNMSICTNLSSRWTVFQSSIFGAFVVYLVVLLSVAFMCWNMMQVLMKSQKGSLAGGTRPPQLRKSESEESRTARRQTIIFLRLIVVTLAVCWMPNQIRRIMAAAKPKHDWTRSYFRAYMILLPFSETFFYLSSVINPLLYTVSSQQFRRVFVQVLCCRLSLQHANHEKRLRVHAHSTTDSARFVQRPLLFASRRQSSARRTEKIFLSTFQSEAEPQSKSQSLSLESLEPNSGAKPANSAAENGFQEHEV
# Test: cell-based or functional assay
Binder,EC50 (luciferase reporter) [µM],ECmax (-fold induction over basal)
H(Benzhydryl)K(Octanoyl)[dPhe(4-Me)][Tyr(3-nitro)] [HKFY-68],0.013,10.8 -fold induction over basal
H(Trt)K(Octanoyl)FY [HKFY-1],0.15,20.5 -fold induction over basal
"H(1,2‑diphenyl)K(Octanoyl)[dPhe(4-Me)]Y [HKFY-59]",0.55,6.76 -fold induction over basal
H(DAMP‑5)K(Octanoyl)FY [HKFY-7],1.56,16 -fold induction over basal
Biotin-H(Benzhydryl)K(Octanoyl)[dPhe(4-Me)]Y [HKFY-72],0.011,10.4 -fold induction over basal
H(4‑methoxylbenzhydryl)K(Octanoyl)FY [HKFY-20],159,20.3 -fold induction over basal
H(4‑methyltrityl)K(Octanoyl)FY [HKFY-5],1.84,16 -fold induction over basal
H(Trt)K(Octanoyl)[dPhe(4-Cl)]Y [HKFY-13],0.014,25.7 -fold induction over basal
HK(Octanoyl)FY (not fully specified (residue 1)) [HKFY-9],42.7,21 -fold induction over basal
"H(3,3‑diphenylethyl)K(Octanoyl)FY [HKFY-17]",8.12,20 -fold induction over basal
"H(Benzhydryl)K(Octanoyl)[dPhe(4-Me)][Tyr(3,5-nitro)] [HKFY-69]",0.015,12.2 -fold induction over basal
H(1‑(4-tert-butyl)phenyl)K(Octanoyl)[dPhe(4-Me)]Y [HKFY-61],0.02,9.88 -fold induction over basal
B1,0.007,11.6 -fold induction over basal
H(CH2(1-naphthyl))K(Octanoyl)FY [HKFY-10],46.5,14 -fold induction over basal
H(Trt)K(Octanoyl)LY [HKFY-51],0.12,14.4 -fold induction over basal
H(2‑phenyl)K(Octanoyl)[dPhe(4-Me)]Y [HKFY-57],0.26,8.5 -fold induction over basal
H(Trt)FYDQQARF (not fully specified; printed as His(trt)-Phe-Tyr-Asp-Gln-Gln-Ala-Arg-Phe) [HKFY-52],56.4,15.5 -fold induction over basal
H(2‑(4-tert-butyl)phenyl)K(Octanoyl)[dPhe(4-Me)]Y [HKFY-60],0.19,28.2 -fold induction over basal
H(Trt)K(Octanoyl)[dPhe(4-Cl)][dY] [HKFY-15],0.098,24.7 -fold induction over basal
H(Trt)K(Octanoyl)[dPhe(4-CF3)]Y [HKFY-76],0.007,14.2 -fold induction over basal
H(Trt)K(caproic)FYDQQARF [HKFY-56],–,14.9 -fold induction over basal
H(2‑cyclohexylethyl)K(Octanoyl)FY [HKFY-11],57.8,22 -fold induction over basal

Binder,EC50 (luciferase reporter) [µM],ECmax (-fold induction over basal)
K(Octanoyl)H(Trt)FY [HKFY-55],2.49,16.8 -fold induction over basal
H(DAMP‑2)K(Octanoyl)FY [HKFY-8],33.6,17.3 -fold induction over basal
H(Benzhydryl)K(Octanoyl)[dPhe(4-Me)]Y-NH2 [HKFY-66],0.011,20.2 -fold induction over basal
H(Benzhydryl)K(Octanoyl)[dPhe(4-Me)][Tyr(3-amino)] [HKFY-70],0.02,10.1 -fold induction over basal
H(Fm)K(Octanoyl)FY [HKFY-18],2.29,10 -fold induction over basal
H(phenethyl)K(Octanoyl)FY [HKFY-19],24.6,18 -fold induction over basal
H(1‑phenyl)K(Octanoyl)[dPhe(4-Me)]Y [HKFY-58],0.02,9.12 -fold induction over basal
Lys(Octanoyl)-Phe-Tyr [HKFY-54],25.9,7.8 -fold induction over basal
H(Trt)K(Octanoyl)[dF]Y [HKFY-12],0.035,20.7 -fold induction over basal
Biotin-H(Trt)K(Octanoyl)FY [HKFY-2],0.14,15 -fold induction over basal
H(4‑methoxybenzhydryl)K(Octanoyl)[dPhe(4-Me)]Y [HKFY-64],0.007,16 -fold induction over basal
His(Benzhydryl)-Lys(Octanoyl) [HKFY-79],0.97,11.2 -fold induction over basal
H(Tos)K(Octanoyl)[dPhe(4-Me)]Y [HKFY-75],0.001,15.9 -fold induction over basal
H(Benzhydryl)K(Octanoyl)[dPhe(4-Me)][Tyr(3-chloro)] [HKFY-67],0.043,10.2 -fold induction over basal
[dH](Trt)K(Octanoyl)[dPhe(4-Cl)][dY] [HKFY-14],0.02,20.9 -fold induction over basal
H(thiophene)K(Octanoyl)[dPhe(4-Me)]Y [HKFY-63],0.006,13.5 -fold induction over basal
H(Trt)K(Octanoyl)FS [HKFY-50],0.7,16.2 -fold induction over basal
H(4‑hydroxybenzhydryl)K(Octanoyl)[dPhe(4-Me)]Y [HKFY-65],0.003,18.3 -fold induction over basal
[dH](Benzhydryl)K(Octanoyl)[dPhe(4-Me)]Y [HKFY-62],0.83,28.1 -fold induction over basal
H(DAMP‑3)K(Octanoyl)FY [HKFY-6],68.4,15 -fold induction over basal
H(Trt)GSK(Octanoyl)FY [HKFY-53],0.34,8 -fold induction over basal
H(Trt)[dK](Octanoyl)[dPhe(4-Cl)]Y [HKFY-16],0.24,27.9 -fold induction over basal
